From paper PMC11969024 (2025) come the findings set out here.

To fix the notation:
B1: peptide HD2 (from tick evasin EVA4) / CXCL14 (biotinylated, synthetic) (parent complex)
chain 1: EEDDYTAYAPLTCYFT
chain 2: SKCKCSRKGPKIRYSDVKKLEMKPKYPHCEEKMVIITTKSVSRYRGQEHCLHPKLQSTKRFIKWYNAWNEKRRVYEE
B2: peptide HD2 (from tick evasin EVA4) / CXCL11 (biotinylated, synthetic) (parent complex)
chain 1: EEDDYTAYAPLTCYFT
chain 2: FPMFKRGRCLCIGPGVKAVKVADIEKASIMYPSNNCDKIEVIITLKENKGQRCLNPKSKQARLIIKKVERKNF

In one experiment the parent is B1.
On to chain 1 L11N, for which the enrichment was -0.349 log2 (difference from the parental peptide).
Still for that read-out and setting: the same measure for chain 1 L11V: -0.136 log2 (difference from the parental peptide).
For the variant chain 1 L11R, the enrichment is -4.9 log2 (difference from the parental peptide).
Consider chain 1 L11H, for which the enrichment was 3.17 log2 (difference from the parental peptide).
With chain 1 L11C, the enrichment was 0.549 log2 (difference from the parental peptide).
Consider chain 1 L11F, for which the enrichment is 1.48 log2 (difference from the parental peptide).
With chain 1 L11Q, the enrichment is -4.52 log2 (difference from the parental peptide).
With chain 1 L11D, the enrichment was 0.52 log2 (difference from the parental peptide).
Still for that read-out and setting: in the case of chain 1 L11A it was 0.339 log2 (difference from the parental peptide); in that of chain 1 L11I, 0.571 log2 (difference from the parental peptide); in that of chain 1 T12L, 1.89 log2 (difference from the parental peptide).
On the same count and under the same terms, the same measure for chain 1 T12D: -6.91 log2 (difference from the parental peptide).
Regarding chain 1 T12F, the enrichment is 2.31 log2 (difference from the parental peptide).
As to chain 1 T12S, the enrichment is -7.83 log2 (difference from the parental peptide).
Still for that read-out and setting: in the case of chain 1 T12R it was -7.34 log2 (difference from the parental peptide); in that of chain 1 T12A, -6.47 log2 (difference from the parental peptide).
The same measure, in the same setting: in the case of chain 1 T12H it was -1.2 log2 (difference from the parental peptide); in that of chain 1 T12I, 3.47 log2 (difference from the parental peptide).
As for chain 1 T12G, the enrichment is -8.56 log2 (difference from the parental peptide).
Take chain 1 T12M: the enrichment was -4.31 log2 (difference from the parental peptide).
Still for that read-out and setting: the same measure for chain 1 T12N: -6.02 log2 (difference from the parental peptide); for chain 1 T12E: -5.22 log2 (difference from the parental peptide).
On to chain 1 E1V, for which the enrichment is -5.63 log2 (difference from the parental peptide).
Still for that read-out and setting: the same measure for chain 1 E1L: 0.456 log2 (difference from the parental peptide); for chain 1 E1Y: 0.958 log2 (difference from the parental peptide).
In the case of chain 1 E1Q, the enrichment was -2.86 log2 (difference from the parental peptide).
For chain 1 E1S, the enrichment was -6.03 log2 (difference from the parental peptide).
On the same count and under the same terms, in the case of chain 1 E1T it was 0.267 log2 (difference from the parental peptide).
Take chain 1 P10D: the enrichment is -1.54 log2 (difference from the parental peptide).
Take chain 1 P10V: the enrichment is 0.331 log2 (difference from the parental peptide).
On the same count and under the same terms, in the case of chain 1 P10L it was 0.0771 log2 (difference from the parental peptide); in that of chain 1 P10E, 3.27 log2 (difference from the parental peptide).
With chain 1 P10H, the enrichment is 0.862 log2 (difference from the parental peptide).
Consider chain 1 P10F, for which the enrichment is -2.31 log2 (difference from the parental peptide).
On to chain 1 P10Q, for which the enrichment is -4.65 log2 (difference from the parental peptide).
Turning to chain 1 P10A, the enrichment was 2.1 log2 (difference from the parental peptide).
Regarding chain 1 P10M, the enrichment is 2.33 log2 (difference from the parental peptide).
Regarding chain 1 Y8V, the enrichment was 3.87 log2 (difference from the parental peptide).
With chain 1 Y8M, the enrichment is 1.74 log2 (difference from the parental peptide).
The same measure, in the same setting: the same measure for chain 1 Y8I: -6.06 log2 (difference from the parental peptide); for chain 1 Y8W: 0.649 log2 (difference from the parental peptide).
For the variant chain 1 Y8L, the enrichment was 0.358 log2 (difference from the parental peptide).
On the same count and under the same terms, the same measure for chain 1 Y8N: -4.8 log2 (difference from the parental peptide).
Consider chain 1 Y8P, for which the enrichment was -6.13 log2 (difference from the parental peptide).
For chain 1 E2D, the enrichment was 0.377 log2 (difference from the parental peptide).
On to chain 1 E2T, for which the enrichment is -2.03 log2 (difference from the parental peptide).
Take chain 1 E2M: the enrichment was -6.07 log2 (difference from the parental peptide).
The same measure, in the same setting: the same measure for chain 1 E2S: 0.196 log2 (difference from the parental peptide).
For chain 1 E2W, the enrichment was 0.435 log2 (difference from the parental peptide).
The same measure, in the same setting: in the case of chain 1 E2V it was -0.0348 log2 (difference from the parental peptide); in that of chain 1 E2N, 0.243 log2 (difference from the parental peptide).
Still for that read-out and setting: the same measure for chain 1 D3T: -5.87 log2 (difference from the parental peptide); for chain 1 D3G: 1.82 log2 (difference from the parental peptide).
In the case of chain 1 D3F, the enrichment was -3.03 log2 (difference from the parental peptide).
On the same count and under the same terms, in the case of chain 1 D3P it was -5.77 log2 (difference from the parental peptide); in that of chain 1 D3I, -8.12 log2 (difference from the parental peptide); in that of chain 1 D3N, 1.21 log2 (difference from the parental peptide).
Turning to chain 1 D3E, the enrichment was -1.97 log2 (difference from the parental peptide).
In the case of chain 1 D3Y, the enrichment was 0.926 log2 (difference from the parental peptide).
As to chain 1 T16C, the enrichment is 1.19 log2 (difference from the parental peptide).
Turning to chain 1 T16W, the enrichment was 2.14 log2 (difference from the parental peptide).
On to chain 1 T16G, for which the enrichment was 2.47 log2 (difference from the parental peptide).
As for chain 1 T16Q, the enrichment is -5.09 log2 (difference from the parental peptide).
On the same count and under the same terms, in the case of chain 1 T16I it was 0.982 log2 (difference from the parental peptide); in that of chain 1 T16A, -3.04 log2 (difference from the parental peptide); in that of chain 1 T16L, 1.24 log2 (difference from the parental peptide).
On to chain 1 T16S, for which the enrichment was -5.85 log2 (difference from the parental peptide).
Turning to chain 1 T16N, the enrichment is -3.97 log2 (difference from the parental peptide).
As to chain 1 T16H, the enrichment is 3.56 log2 (difference from the parental peptide).
Still for that read-out and setting: in the case of chain 1 F15S it was -6.23 log2 (difference from the parental peptide).
Consider chain 1 F15H, for which the enrichment was -4.57 log2 (difference from the parental peptide).
As to chain 1 F15Y, the enrichment is 3.35 log2 (difference from the parental peptide).
Still for that read-out and setting: in the case of chain 1 F15C it was 1.14 log2 (difference from the parental peptide).
chain 1 F15W: the enrichment was -6.44 log2 (difference from the parental peptide).
The same measure, in the same setting: the same measure for chain 1 F15M: 0.3 log2 (difference from the parental peptide); for chain 1 F15L: -4.99 log2 (difference from the parental peptide); for chain 1 F15N: -3.99 log2 (difference from the parental peptide).
On the same count and under the same terms, in the case of chain 1 F15A it was -5.37 log2 (difference from the parental peptide); in that of chain 1 F15R, -5.53 log2 (difference from the parental peptide); in that of chain 1 F15V, 0.451 log2 (difference from the parental peptide).
As to chain 1 F15G, the enrichment was -8.03 log2 (difference from the parental peptide).
For the variant chain 1 F15Q, the enrichment was 1.93 log2 (difference from the parental peptide).
On to chain 1 Y14E, for which the enrichment is -0.269 log2 (difference from the parental peptide).
For chain 1 Y14W, the enrichment was -6.55 log2 (difference from the parental peptide).
Still for that read-out and setting: the same measure for chain 1 Y14A: -0.328 log2 (difference from the parental peptide); for chain 1 Y14C: -4.99 log2 (difference from the parental peptide).
Consider chain 1 Y14H, for which the enrichment is 2.79 log2 (difference from the parental peptide).
Regarding chain 1 Y14V, the enrichment is -3.62 log2 (difference from the parental peptide).
For chain 1 T6K, the enrichment is -5.43 log2 (difference from the parental peptide).
chain 1 T6Y: the enrichment is 3.46 log2 (difference from the parental peptide).
In the case of chain 1 T6R, the enrichment was 3.99 log2 (difference from the parental peptide).
Same read-out and setting: in the case of chain 1 T6Q it was 0.84 log2 (difference from the parental peptide); in that of chain 1 T6P, 1.85 log2 (difference from the parental peptide); in that of chain 1 T6G, 4.19 log2 (difference from the parental peptide).
For the variant chain 1 T6D, the enrichment was 3.46 log2 (difference from the parental peptide).
Regarding chain 1 T6I, the enrichment was 0.467 log2 (difference from the parental peptide).
Consider chain 1 T6E, for which the enrichment was 2.79 log2 (difference from the parental peptide).
As to chain 1 T6F, the enrichment was 0.389 log2 (difference from the parental peptide).
The same measure, in the same setting: the same measure for chain 1 T6M: 1.47 log2 (difference from the parental peptide); for chain 1 T6S: -0.144 log2 (difference from the parental peptide); for chain 1 T6N: 0.149 log2 (difference from the parental peptide).
On the same count and under the same terms, the same measure for chain 1 D4I: 0.635 log2 (difference from the parental peptide).
With chain 1 D4W, the enrichment is -5.85 log2 (difference from the parental peptide).
chain 1 D4P: the enrichment is 1.82 log2 (difference from the parental peptide).
As to chain 1 D4N, the enrichment is 1.31 log2 (difference from the parental peptide).
For the variant chain 1 D4F, the enrichment is -0.493 log2 (difference from the parental peptide).
As to chain 1 D4E, the enrichment was -4.2 log2 (difference from the parental peptide).
Turning to chain 1 D4M, the enrichment was -6.89 log2 (difference from the parental peptide).
Same read-out and setting: in the case of chain 1 A9T it was 2.11 log2 (difference from the parental peptide); in that of chain 1 A9G, -5.95 log2 (difference from the parental peptide); in that of chain 1 A9K, -4.89 log2 (difference from the parental peptide).
For the variant chain 1 A9Q, the enrichment is 3.77 log2 (difference from the parental peptide).
For chain 1 A9V, the enrichment was -2.17 log2 (difference from the parental peptide).
As to chain 1 A9H, the enrichment was -6.47 log2 (difference from the parental peptide).
Take chain 1 A9F: the enrichment is 0.278 log2 (difference from the parental peptide).
chain 1 A9N: the enrichment was 4.16 log2 (difference from the parental peptide).
With chain 1 A9D, the enrichment is -5.49 log2 (difference from the parental peptide).
chain 1 A9W: the enrichment is 1.99 log2 (difference from the parental peptide).
As for chain 1 A9E, the enrichment was -4.09 log2 (difference from the parental peptide).
As to chain 1 A9S, the enrichment was -1.59 log2 (difference from the parental peptide).
Still for that read-out and setting: the same measure for chain 1 C13A: -6.89 log2 (difference from the parental peptide); for chain 1 C13T: -5.9 log2 (difference from the parental peptide); for chain 1 C13D: -5.83 log2 (difference from the parental peptide).
On the same count and under the same terms, the same measure for chain 1 C13P: -6.86 log2 (difference from the parental peptide); for chain 1 C13S: -3.41 log2 (difference from the parental peptide).
In the case of chain 1 C13N, the enrichment was -4.88 log2 (difference from the parental peptide).
For chain 1 C13G, the enrichment is -8.69 log2 (difference from the parental peptide).
With chain 1 A7T, the enrichment was -5.45 log2 (difference from the parental peptide).
Take chain 1 A7N: the enrichment is 2.93 log2 (difference from the parental peptide).
Turning to chain 1 A7D, the enrichment is 3.18 log2 (difference from the parental peptide).
Still for that read-out and setting: the same measure for chain 1 A7S: 1 log2 (difference from the parental peptide); for chain 1 A7R: 1.24 log2 (difference from the parental peptide).
Consider chain 1 A7H, for which the enrichment is 1.29 log2 (difference from the parental peptide).
chain 1 A7G: the enrichment was 1.97 log2 (difference from the parental peptide).
On to chain 1 A7I, for which the enrichment is 0.79 log2 (difference from the parental peptide).
Still for that read-out and setting: in the case of chain 1 A7Q it was -3.16 log2 (difference from the parental peptide); in that of chain 1 A7M, -3.2 log2 (difference from the parental peptide).
Same read-out and setting: in the case of chain 1 A7Y it was 2.89 log2 (difference from the parental peptide).
On to chain 1 Y5W, for which the enrichment was -1.34 log2 (difference from the parental peptide).
Consider chain 1 Y5L, for which the enrichment was -2.83 log2 (difference from the parental peptide).
Same read-out and setting: the same measure for chain 1 Y5F: -5.86 log2 (difference from the parental peptide); for chain 1 Y5M: -5.9 log2 (difference from the parental peptide).

In another experiment the parent is B2.
With chain 1 C13T, the enrichment was -3.56 log2 (difference from the parental peptide).
As to chain 1 E1S, the enrichment is -1.7 log2 (difference from the parental peptide).
Consider chain 1 D4Y, for which the enrichment is -4.43 log2 (difference from the parental peptide).
For chain 1 E2A, the enrichment is -2.47 log2 (difference from the parental peptide).
On to chain 1 T16N, for which the enrichment was -3.84 log2 (difference from the parental peptide).
For the variant chain 1 T16K, the enrichment is -4.41 log2 (difference from the parental peptide).
chain 1 A9S: the enrichment was -0.211 log2 (difference from the parental peptide).
With chain 1 Y5H, the enrichment was -0.00324 log2 (difference from the parental peptide).
